{
  "source": "patent US5534631",
  "about": "“Cellular factor ILF” (Board of Regents, The University of Texas System)",
  "binders": {"B1": {"name": "CREB/ATF site, somatostatin promoter (-60 to -33) (dsDNA)", "DNA 1": "GGTTCCTCCTTGGCTGACGTCAGAGAGAGA", "DNA 2": "TCTCTCTCTGACGTCAGCCAAGGAGGAACC"}, "B2": {"name": "IL-2 promoter NFAT motif (-285 to -254) (dsDNA)", "DNA 1": "AATTGGAGGAAAAACTGTTTCATACAGAAGGCGT", "DNA 2": "ACGCCTTCTGTATGAAACAGTTTTTCCTCCAATT"}, "B3": {"name": "HIV-1 LTR proximal ILF motif (-223 to -195) (dsDNA)", "DNA 1": "GAGGACGCGGAGAAAGAAGTGTTAGTGTG", "DNA 2": "CACACTAACACTTCTTTCTCCGCGTCCTC"}, "B4": {"name": "HIV-1 distal NFAT site (Example 3) (dsDNA)", "DNA 1": "GAAGAGGCCAATGAAGGAGAGAACAACA", "DNA 2": "TGTTGTTCTCTCCTTCATTGGCCTCTTC"}, "B5": {"name": "HIV-1 LTR distal ILF motif (-283 to -256) (dsDNA)", "DNA 1": "GAAGAGGCCAATGAAGGAGAGAACAACA", "DNA 2": "TGTTGTTCTCTCCTTCATTGGCCTCTTC"}, "B6": {"name": "HIV-1 proximal NFAT site (Example 3) (dsDNA)", "DNA 1": "GAGGACGCGGAGAAAGAAGTGTTAAGTGTG", "DNA 2": "CACACTTAACACTTCTTTCTCCGCGTCCTC"}, "B7": {"name": "AP1 site, adenovirus E3 promoter (-103 to -83) (dsDNA)", "DNA 1": "GAAGTTCAGATGACTAACTCA", "DNA 2": "TGAGTTAGTCATCTGAACTTC"}},
  "key": {"[1]": {"biological_target": "T1, beta-galactosidase/ILF fusion (Homo sapiens, UniProt Q01167 SEQ:138-372)", "T1 sequence (Q01167 258-492)": "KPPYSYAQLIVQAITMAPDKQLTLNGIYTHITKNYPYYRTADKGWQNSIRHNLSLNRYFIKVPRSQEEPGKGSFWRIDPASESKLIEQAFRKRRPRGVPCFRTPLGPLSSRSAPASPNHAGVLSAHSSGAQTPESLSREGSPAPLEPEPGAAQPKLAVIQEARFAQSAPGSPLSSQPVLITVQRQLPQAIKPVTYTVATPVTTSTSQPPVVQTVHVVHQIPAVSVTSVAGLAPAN", "experiment": "competition; up to 50-fold excess", "conditions": "tags: N-terminal beta-galactosidase (lambda gt11)", "procedure": "Figure 2: FIG. 2. Gel retardation analysis with β-galactosidase/ILF fusion protein. An HIV-LTR fragment extending from −310 to −255 was used in gel retardations with either β-galactosidase or β-galactosidase/ILF purified with anti-β-galactosidase sepharose chromatography. Lane 1, probe alone; lane 2, probe with 3 μg of β-galactosidase extract; lane 3, probe with 3 μg of β-galactosidase/ILF extract. Competition analysis with either a 10-fold (lanes 4, 6, 8, 10) or 50-fold (lanes 5, 7, 9, 11) molar excess of unlabeled oligonucleotides corresponding to ILF (lanes 4 and 5), NFAT (lanes 6 and 7), AP1 (lanes 8 and 9) and CREB (lanes 10 and 11) binding motifs are shown. Figure 3B: FIG. 3. Amino acid sequence of the ILF coding region. (A) A 543 amino acid open reading frame encoded by a portion of the ILF cDNA. The shaded region indicates the region of homology of ILF with the fork head and HNF-3A DNA binding domains. The circled region (GAGSSG) SEQ ID NO:12 contains homology with a nucleotide binding sequence, the boxed region (RKRRPR) SEQ ID NO:13 contains a potential nuclear localization signal, the underlined sequence (RTPLGPLSS) SEQ ID NO:14 is homologous to a region required for ubiquitin-mediated degradation, and the dotted line (NGT) indicates a potential N-glycosylation site. (B) The 3.0 kb ILF cDNA and the position of the 1629 bp open reading frame. […]"}, "[2]": {"biological_target": "T2, glutathione S-transferase (UniProt P08515 P08515:1-218)", "T2 sequence (P08515 whole entry, the tested form may be a part, one chain of several)": "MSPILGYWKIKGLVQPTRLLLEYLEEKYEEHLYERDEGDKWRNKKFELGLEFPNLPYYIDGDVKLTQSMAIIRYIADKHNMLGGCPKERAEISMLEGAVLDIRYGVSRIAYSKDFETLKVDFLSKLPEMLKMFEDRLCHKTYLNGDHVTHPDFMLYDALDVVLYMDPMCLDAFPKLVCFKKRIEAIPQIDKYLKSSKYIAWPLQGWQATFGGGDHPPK", "experiment": "EMSA; control", "conditions": "tags: pGEX-3X (Pharmacia), chain copies: 2, label: 32P (when probe)", "text": "(§1) The constructs tested included a deletion of the amino terminus of ILF, a deletion of both the amino and carboxyl termini of ILF, or a deletion of the fork head domain in addition to the amino and carboxyl termini of ILF. Oligonucleotides corresponding to the distal ILF site in the HIV-LTR, the NFAT site in the IL-2 promoter, and an HIV-LTR fragment containing the distal ILF site were used in gel retardation analysis.\n(§2) Figure 5C: FIG. 5. Gel retardation analysis of glutathione S-transferase/ILF fusions. Gel retardation analysis was performed with either ILF oligonucleotides (A), a fragment extending from −310 and −255 in the HIV-LTR (B), or NFAT oligonucleotides (C) and 4 μg of each of the glutathione S-transferase/ILF fusions. Lane 0, probe alone; lane 1, glutathione S-transferase (GST) protein alone; lane 2, a deletion of both the amino and carboxyl-termini in the GST/ILF fusion (ΔILF3); lane 3, a deletion of the ILF fork head DNA binding domain in addition to the amino and carboxyl termini in the GST/ILF fusion (ΔILF2); lane 4, an amino-terminal deletion of ILF in the GST/ILF fusion (ΔILF1)."}, "[3]": {"biological_target": "T3, GST/ILF amino and carboxyl deletion, fork head retained (Homo sapiens, UniProt Q01167 SEQ:97-367)", "T3 sequence (Q01167 217-487, stated change not applied)": "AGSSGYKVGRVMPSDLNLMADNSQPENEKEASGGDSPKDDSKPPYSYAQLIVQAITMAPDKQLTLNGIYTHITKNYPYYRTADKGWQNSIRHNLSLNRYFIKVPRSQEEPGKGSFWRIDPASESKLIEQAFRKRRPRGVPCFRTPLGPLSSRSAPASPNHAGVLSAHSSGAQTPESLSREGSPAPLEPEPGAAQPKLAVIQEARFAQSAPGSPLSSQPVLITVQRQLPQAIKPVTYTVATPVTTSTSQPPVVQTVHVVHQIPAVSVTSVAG", "experiment": "EMSA; 4 ug protein", "conditions": "tags: N-terminal GST (pGEX-3X); label: 32P (when probe)", "text": "as §1, §2"}, "[4]": {"biological_target": "T4, GST/ILF delta1 (amino-terminal deletion) (Homo sapiens, UniProt Q01167 SEQ:97-540)", "T4 sequence (Q01167 217-660, stated change not applied)": "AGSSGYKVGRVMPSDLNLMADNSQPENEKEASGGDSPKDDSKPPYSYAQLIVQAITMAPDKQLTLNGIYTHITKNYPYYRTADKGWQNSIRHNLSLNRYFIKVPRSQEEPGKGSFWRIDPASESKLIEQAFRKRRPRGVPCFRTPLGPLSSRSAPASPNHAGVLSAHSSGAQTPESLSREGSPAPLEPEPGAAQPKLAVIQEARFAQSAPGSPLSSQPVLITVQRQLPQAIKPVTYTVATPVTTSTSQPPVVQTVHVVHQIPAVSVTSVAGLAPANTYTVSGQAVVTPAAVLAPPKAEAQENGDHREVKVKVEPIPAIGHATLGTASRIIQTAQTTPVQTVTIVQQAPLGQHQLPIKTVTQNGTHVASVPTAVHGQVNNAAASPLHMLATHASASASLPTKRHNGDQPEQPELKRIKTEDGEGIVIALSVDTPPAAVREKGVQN", "experiment": "EMSA; 4 ug protein", "conditions": "tags: N-terminal GST (pGEX-3X); label: 32P (when probe)", "text": "as §1, §2"}, "[5]": {"biological_target": "T5, GST/ILF fusion (Example 3) (Homo sapiens, UniProt Q01167 SEQ:1-540)", "T5 sequence (Q01167 121-660)": "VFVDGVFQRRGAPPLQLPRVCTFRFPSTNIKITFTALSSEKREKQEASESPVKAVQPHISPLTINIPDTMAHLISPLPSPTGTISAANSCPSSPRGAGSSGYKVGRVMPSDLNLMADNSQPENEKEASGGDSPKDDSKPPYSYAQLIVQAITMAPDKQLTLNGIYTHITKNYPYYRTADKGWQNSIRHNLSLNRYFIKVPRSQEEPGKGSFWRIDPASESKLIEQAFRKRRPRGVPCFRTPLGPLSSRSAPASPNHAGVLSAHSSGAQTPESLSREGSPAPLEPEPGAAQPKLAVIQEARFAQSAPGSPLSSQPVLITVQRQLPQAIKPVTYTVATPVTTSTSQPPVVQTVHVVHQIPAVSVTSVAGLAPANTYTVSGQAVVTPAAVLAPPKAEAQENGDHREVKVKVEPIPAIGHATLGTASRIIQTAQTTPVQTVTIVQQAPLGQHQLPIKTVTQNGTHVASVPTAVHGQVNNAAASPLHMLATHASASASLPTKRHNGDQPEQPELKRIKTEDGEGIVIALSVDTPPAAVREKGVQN", "experiment": "EMSA; self-competition observed", "conditions": "tags: N-terminal GST (pGEX-3X); label: 32P (when probe)", "procedure": "Gel retardation of ILF with the IL-2 NFAT motif. (A) Oligonucleotides corresponding to the NFAT motif in the IL-2 promoter extending from −285 to −254 were end labeled with γP^32ATP and used in gel retardation analysis alone (lane 0), with glutathione-S-transferase (lane 1), or with a glutathione-S-transferase/ILF fusion protein (lanes 2–16). The specificity of binding was tested by competition with unlabeled oligonucleotides corresponding to the NFAT motif in the IL-2 promoter (lanes 2–4), sequences spanning −283 to −256 and −223 to −195 in the HIV-LTR which comprised distal (lanes 5–7) and proximal (lanes 8–10) NFAT motifs respectively, the hepatocyte nuclear factor HNF-3A binding site extending from −107 to −92 in the transthyretin promoter (lanes 11–13), and an AP-1 binding sequence extending from −103 to −83 in the early region 3 promoter (lanes 14–16). The unlabeled oligonucleotides were present in either an equimolar (lanes 2, 5, 8, 11, and 14), 5-fold (lanes 3, 6, 9, 12, and 15) or 20-fold (lanes 4, 7, 10, 13 and 16) molar excess of the labeled oligonucleotides. (B) Sequences of NFAT motifs in the IL-2 promoter and the distal and proximal regions of the HIV-LTR are shown.\nTwo complexes I and II were noted; the major complex (I) was due to full-length GST/ILF while the lower complex (II) was due to GST/ILF degradation products. […]"}, "[6]": {"biological_target": "T6, GST/ILF amino, carboxyl and fork head deletion (Homo sapiens, UniProt Q01167 SEQ:97-186)", "T6 sequence (Q01167 217-306, stated change not applied)": "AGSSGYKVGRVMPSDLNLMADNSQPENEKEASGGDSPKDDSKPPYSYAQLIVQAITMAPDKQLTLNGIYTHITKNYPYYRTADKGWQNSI", "experiment": "EMSA; fork head deleted", "conditions": "tags: N-terminal GST (pGEX-3X); label: 32P (when probe)", "text": "as §1, §2"}, "[7]": {"biological_target": "T6, GST/ILF amino, carboxyl and fork head …", "experiment": "EMSA; stated similar with proximal site", "conditions": "tags: N-terminal GST (pGEX-3X)"}, "[8]": {"biological_target": "T3, GST/ILF amino and carboxyl deletion, …", "experiment": "EMSA; stated similar binding with proximal site", "conditions": "tags: N-terminal GST (pGEX-3X)"}, "[9]": {"biological_target": "T4, GST/ILF delta1 (amino-terminal deletion)", "experiment": "EMSA; stated similar binding with proximal site", "conditions": "tags: N-terminal GST (pGEX-3X)"}, "[10]": {"biological_target": "T1, beta-galactosidase/ILF fusion", "experiment": "competition; complete competition", "conditions": "tags: N-terminal beta-galactosidase (lambda gt11)"}, "[11]": {"biological_target": "T5, GST/ILF fusion (Example 3)", "experiment": "competition; 1-, 5-, 20-fold excess against IL-2 NFAT probe", "conditions": "tags: N-terminal GST (pGEX-3X)"}, "[12]": {"biological_target": "T3, GST/ILF amino and carboxyl deletion, …", "experiment": "EMSA; construct naming (delta2/delta3) differs between legend and methods", "conditions": "tags: N-terminal GST (pGEX-3X)"}, "[13]": {"biological_target": "T1, beta-galactosidase/ILF fusion", "experiment": "competition; competes with HIV-LTR probe at 10- or 50-fold excess", "conditions": "tags: N-terminal beta-galactosidase (lambda gt11)"}, "[14]": {"biological_target": "T6, GST/ILF amino, carboxyl and fork head …", "experiment": "EMSA; fork head deleted; construct naming differs between legend and methods", "conditions": "tags: N-terminal GST (pGEX-3X)"}, "[15]": {"biological_target": "T4, GST/ILF delta1 (amino-terminal deletion)", "experiment": "EMSA; 4 ug protein", "conditions": "tags: N-terminal GST (pGEX-3X)"}, "[16]": {"biological_target": "T2, glutathione S-transferase", "experiment": "EMSA; control", "conditions": "tags: pGEX-3X (Pharmacia), chain copies: 2"}, "[17]": {"biological_target": "T1, beta-galactosidase/ILF fusion", "experiment": "competition; up to 50-fold excess", "conditions": "tags: N-terminal beta-galactosidase (lambda gt11)", "remark": "listed apart in the source"}, "[18]": {"biological_target": "T5, GST/ILF fusion (Example 3)", "experiment": "competition; no significant competition (also SEQ 27)", "conditions": "tags: N-terminal GST (pGEX-3X)"}},
  "data": [
    {"binder": "B1", "values": [
      {"measurement": "binding result", "setting": "[1]", "value": "no binding"}
    ]},
    {"binder": "B2", "values": [
      {"measurement": "binding result", "setting": "[2]", "value": "no binding"},
      {"measurement": "binding result", "setting": "[3]", "value": "binds"},
      {"measurement": "binding result", "setting": "[4]", "value": "binds"},
      {"measurement": "binding result", "setting": "[5]", "value": "binds"},
      {"measurement": "binding result", "setting": "[6]", "value": "no binding"}
    ]},
    {"binder": "B3", "values": [
      {"measurement": "binding result", "setting": "[7]", "value": "no binding"},
      {"measurement": "binding result", "setting": "[8]", "value": "binds"},
      {"measurement": "binding result", "setting": "[9]", "value": "binds"},
      {"measurement": "binding result", "setting": "[10]", "value": "binds"}
    ]},
    {"binder": "B4", "values": [
      {"measurement": "binding result", "setting": "[11]", "value": "binds"}
    ]},
    {"binder": "B5", "values": [
      {"measurement": "binding result", "setting": "[12]", "value": "binds"},
      {"measurement": "binding result", "setting": "[13]", "value": "binds"},
      {"measurement": "binding result", "setting": "[14]", "value": "no binding"},
      {"measurement": "binding result", "setting": "[15]", "value": "binds"},
      {"measurement": "binding result", "setting": "[16]", "value": "no binding"}
    ]},
    {"binder": "B6", "values": [
      {"measurement": "binding result", "setting": "[11]", "value": "binds"}
    ]},
    {"binder": "B7", "values": [
      {"measurement": "binding result", "setting": "[17]", "value": "no binding"},
      {"measurement": "binding result", "setting": "[18]", "value": "no binding"}
    ]}
  ]
}
